From patent US20050282743A1, “Molecular interactions in cells” (Arbor Vita Corporation, priority 2001, published 2005) come the findings set out here.

Ends that are not written are not given here. Peptide text beside a SMILES is read from it. * marks the point of attachment. Biotin = O=C1N[C@H]2[C@H](CS[C@H]2CCCCC(=O)*)N1

Holding throughout (experiment): G' assay (10 uM PL peptide), results of TABLE 7 and TABLE 12
Common to all, as to assay type: binding

Assay [1] concerns the target T1, PDZ protein (GST-PDZ fusion) (Homo sapiens, UniProt Q76G19).
T1 construct: made in house; host or cells: E. coli (DH5alpha, BL21 or JM109)
T1 sequence (Q76G19 1-769): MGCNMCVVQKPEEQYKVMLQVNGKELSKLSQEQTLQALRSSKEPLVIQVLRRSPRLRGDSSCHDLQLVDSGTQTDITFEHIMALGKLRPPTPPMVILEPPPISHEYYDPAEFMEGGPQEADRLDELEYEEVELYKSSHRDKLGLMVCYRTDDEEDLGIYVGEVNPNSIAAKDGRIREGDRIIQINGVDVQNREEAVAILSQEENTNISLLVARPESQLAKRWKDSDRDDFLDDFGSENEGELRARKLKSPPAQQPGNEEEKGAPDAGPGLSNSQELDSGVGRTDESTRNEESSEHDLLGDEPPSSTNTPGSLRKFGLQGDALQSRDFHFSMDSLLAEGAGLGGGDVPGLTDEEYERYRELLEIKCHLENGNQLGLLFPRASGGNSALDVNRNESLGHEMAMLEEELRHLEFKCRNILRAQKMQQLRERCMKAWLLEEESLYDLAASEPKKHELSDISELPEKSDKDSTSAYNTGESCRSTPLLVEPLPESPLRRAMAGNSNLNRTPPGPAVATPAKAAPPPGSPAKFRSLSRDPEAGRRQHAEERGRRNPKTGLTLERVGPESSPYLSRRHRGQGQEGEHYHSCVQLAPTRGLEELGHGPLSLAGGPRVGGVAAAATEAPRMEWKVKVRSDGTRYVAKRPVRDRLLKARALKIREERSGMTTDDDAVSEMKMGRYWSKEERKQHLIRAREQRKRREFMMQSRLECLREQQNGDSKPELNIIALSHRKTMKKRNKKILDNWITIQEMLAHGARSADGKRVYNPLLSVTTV
To be noted: PDZ LU1, PDZ Domain 1. An outline of the steps: (§1)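 Same steps as the G-zero format, apart from a peptide concentration of 10 uM in place of 20 uM in step 2. Amino-terminally biotinylated PL peptides bind GST-PDZ fusions, and retained peptide is quantified by 450 nm absorbance.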

For assay [2], the target named is T2, PDZ protein (GST-PDZ fusion) (Homo sapiens, UniProt Q8N3R9).
T2 construct: made in house; host or cells: E. coli (DH5alpha, BL21 or JM109)
T2 sequence (Q8N3R9 whole entry, the tested form may be a part): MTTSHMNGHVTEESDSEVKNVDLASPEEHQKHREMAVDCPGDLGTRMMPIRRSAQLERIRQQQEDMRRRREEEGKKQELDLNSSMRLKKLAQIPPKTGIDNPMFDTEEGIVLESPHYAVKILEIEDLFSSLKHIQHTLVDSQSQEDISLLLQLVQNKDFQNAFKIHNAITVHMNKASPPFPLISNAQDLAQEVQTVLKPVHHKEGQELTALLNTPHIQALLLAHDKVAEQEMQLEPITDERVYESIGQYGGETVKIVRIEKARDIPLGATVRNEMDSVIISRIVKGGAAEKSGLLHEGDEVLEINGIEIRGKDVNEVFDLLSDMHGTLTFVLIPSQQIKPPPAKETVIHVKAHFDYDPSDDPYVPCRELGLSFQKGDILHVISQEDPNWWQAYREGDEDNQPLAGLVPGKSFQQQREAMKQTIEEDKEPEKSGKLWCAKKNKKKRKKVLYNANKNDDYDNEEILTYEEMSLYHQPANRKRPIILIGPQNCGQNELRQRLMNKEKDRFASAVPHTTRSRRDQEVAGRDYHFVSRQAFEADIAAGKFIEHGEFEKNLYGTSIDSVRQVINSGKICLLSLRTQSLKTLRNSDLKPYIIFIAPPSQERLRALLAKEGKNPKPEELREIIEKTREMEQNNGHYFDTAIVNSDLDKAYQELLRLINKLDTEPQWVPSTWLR
To be noted: PDZ FLJ 12615 (PALS-1), PDZ Domain 1. An outline of the steps:
as §1

Assay [3] deals with T3, PDZ protein (GST-PDZ fusion) (Homo sapiens, UniProt Q86UR5).
T3 construct: made in house; host or cells: E. coli (DH5alpha, BL21 or JM109)
The note with it: PDZ KIAA0340, PDZ Domain 1. An outline of the steps: as §1

Assay [4] addresses T4, PDZ protein (GST-PDZ fusion) (Homo sapiens, UniProt Q8TDM6).
T4 construct: made in house; host or cells: E. coli (DH5alpha, BL21 or JM109)
To be noted: PDZ DLG5, PDZ Domain 2. An outline of the steps: as §1

In assay [5] the target is T5, PDZ protein (GST-PDZ fusion) (Homo sapiens, UniProt Q9H190).
T5 construct: made in house; host or cells: E. coli (DH5alpha, BL21 or JM109)
T5 sequence (Q9H190 1-292): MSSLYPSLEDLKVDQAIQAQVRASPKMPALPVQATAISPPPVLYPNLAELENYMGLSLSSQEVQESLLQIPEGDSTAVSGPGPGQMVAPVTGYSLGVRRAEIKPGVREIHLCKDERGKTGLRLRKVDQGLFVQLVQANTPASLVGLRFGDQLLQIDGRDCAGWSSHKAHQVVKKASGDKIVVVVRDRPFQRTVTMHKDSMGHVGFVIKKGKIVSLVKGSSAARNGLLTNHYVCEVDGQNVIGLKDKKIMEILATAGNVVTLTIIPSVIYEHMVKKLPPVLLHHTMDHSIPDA
An outline of the steps:
as §1

For assay [6], the target named is T6, PDZ protein (GST-PDZ fusion) (Homo sapiens, UniProt Q9H6Y5).
T6 construct: made in house; host or cells: E. coli (DH5alpha, BL21 or JM109)
T6 sequence (Q9H6Y5 1-334): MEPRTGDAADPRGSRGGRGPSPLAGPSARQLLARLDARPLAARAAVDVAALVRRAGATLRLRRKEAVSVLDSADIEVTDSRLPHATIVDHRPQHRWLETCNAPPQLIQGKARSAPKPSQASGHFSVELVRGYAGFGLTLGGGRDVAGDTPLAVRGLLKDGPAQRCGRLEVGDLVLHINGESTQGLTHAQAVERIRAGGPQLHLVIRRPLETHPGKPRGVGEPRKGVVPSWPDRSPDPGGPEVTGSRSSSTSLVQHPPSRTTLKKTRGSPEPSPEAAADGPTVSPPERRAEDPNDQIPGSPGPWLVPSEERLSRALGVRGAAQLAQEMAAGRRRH
To be noted: PDZ FLJ21687, PDZ Domain 1. An outline of the steps:
as §1

Assay [7] concerns the target T7, PDZ protein (GST-PDZ fusion) (Homo sapiens, UniProt Q8IVF5).
T7 construct: made in house; host or cells: E. coli (DH5alpha, BL21 or JM109)
The note with it: PDZ TIAM-2, PDZ Domain 1. An outline of the steps: as §1

T4 sequence (Q8TDM6 whole entry, the tested form may be a part): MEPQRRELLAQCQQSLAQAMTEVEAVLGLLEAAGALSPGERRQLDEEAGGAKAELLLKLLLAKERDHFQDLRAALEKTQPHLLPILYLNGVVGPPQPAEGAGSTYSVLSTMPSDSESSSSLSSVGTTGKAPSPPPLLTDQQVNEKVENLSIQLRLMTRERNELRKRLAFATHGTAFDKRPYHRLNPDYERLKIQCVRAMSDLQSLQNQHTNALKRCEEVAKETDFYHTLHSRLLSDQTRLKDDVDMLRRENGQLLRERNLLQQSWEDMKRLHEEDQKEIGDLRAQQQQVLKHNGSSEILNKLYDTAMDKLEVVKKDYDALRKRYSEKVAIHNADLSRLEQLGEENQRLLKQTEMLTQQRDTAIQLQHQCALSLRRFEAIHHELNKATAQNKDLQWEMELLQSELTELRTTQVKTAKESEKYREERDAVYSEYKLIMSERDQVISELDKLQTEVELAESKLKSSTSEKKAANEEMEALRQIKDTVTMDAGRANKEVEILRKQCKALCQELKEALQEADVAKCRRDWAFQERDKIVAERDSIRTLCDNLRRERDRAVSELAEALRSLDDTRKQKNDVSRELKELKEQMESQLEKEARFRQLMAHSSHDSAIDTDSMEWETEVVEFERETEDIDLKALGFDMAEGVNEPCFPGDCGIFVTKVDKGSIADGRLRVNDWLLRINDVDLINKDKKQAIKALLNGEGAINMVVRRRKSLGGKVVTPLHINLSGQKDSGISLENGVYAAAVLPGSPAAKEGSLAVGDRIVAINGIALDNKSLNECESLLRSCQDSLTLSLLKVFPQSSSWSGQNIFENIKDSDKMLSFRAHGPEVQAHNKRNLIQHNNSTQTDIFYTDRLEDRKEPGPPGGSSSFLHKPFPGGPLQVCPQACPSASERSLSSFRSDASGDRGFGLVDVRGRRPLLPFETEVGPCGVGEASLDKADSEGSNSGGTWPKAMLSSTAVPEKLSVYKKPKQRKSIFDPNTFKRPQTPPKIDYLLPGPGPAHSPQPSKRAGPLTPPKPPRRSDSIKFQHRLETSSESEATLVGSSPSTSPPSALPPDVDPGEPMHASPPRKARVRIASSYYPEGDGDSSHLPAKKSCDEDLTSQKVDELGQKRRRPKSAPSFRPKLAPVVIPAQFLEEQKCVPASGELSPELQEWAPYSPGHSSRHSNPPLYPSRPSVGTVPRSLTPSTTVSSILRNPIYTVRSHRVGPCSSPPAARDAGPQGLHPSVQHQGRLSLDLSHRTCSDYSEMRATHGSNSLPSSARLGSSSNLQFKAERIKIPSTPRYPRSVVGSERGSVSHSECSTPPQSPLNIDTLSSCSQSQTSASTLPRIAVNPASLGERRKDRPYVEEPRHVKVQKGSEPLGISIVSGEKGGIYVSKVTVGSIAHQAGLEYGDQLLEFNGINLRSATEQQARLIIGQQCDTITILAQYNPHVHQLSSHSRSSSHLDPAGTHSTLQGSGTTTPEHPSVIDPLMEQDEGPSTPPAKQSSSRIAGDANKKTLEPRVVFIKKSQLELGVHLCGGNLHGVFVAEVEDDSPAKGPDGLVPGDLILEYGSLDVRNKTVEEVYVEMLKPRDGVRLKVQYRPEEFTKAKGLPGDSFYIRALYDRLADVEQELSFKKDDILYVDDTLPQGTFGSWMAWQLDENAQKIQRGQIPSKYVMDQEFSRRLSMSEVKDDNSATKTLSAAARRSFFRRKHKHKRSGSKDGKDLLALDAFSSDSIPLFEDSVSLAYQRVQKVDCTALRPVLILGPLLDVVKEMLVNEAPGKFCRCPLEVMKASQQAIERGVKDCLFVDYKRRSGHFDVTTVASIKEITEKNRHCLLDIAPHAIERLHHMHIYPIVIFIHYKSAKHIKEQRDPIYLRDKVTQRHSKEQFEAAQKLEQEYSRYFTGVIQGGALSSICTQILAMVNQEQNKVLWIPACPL
T7 sequence (Q8IVF5 whole entry, the tested form may be a part): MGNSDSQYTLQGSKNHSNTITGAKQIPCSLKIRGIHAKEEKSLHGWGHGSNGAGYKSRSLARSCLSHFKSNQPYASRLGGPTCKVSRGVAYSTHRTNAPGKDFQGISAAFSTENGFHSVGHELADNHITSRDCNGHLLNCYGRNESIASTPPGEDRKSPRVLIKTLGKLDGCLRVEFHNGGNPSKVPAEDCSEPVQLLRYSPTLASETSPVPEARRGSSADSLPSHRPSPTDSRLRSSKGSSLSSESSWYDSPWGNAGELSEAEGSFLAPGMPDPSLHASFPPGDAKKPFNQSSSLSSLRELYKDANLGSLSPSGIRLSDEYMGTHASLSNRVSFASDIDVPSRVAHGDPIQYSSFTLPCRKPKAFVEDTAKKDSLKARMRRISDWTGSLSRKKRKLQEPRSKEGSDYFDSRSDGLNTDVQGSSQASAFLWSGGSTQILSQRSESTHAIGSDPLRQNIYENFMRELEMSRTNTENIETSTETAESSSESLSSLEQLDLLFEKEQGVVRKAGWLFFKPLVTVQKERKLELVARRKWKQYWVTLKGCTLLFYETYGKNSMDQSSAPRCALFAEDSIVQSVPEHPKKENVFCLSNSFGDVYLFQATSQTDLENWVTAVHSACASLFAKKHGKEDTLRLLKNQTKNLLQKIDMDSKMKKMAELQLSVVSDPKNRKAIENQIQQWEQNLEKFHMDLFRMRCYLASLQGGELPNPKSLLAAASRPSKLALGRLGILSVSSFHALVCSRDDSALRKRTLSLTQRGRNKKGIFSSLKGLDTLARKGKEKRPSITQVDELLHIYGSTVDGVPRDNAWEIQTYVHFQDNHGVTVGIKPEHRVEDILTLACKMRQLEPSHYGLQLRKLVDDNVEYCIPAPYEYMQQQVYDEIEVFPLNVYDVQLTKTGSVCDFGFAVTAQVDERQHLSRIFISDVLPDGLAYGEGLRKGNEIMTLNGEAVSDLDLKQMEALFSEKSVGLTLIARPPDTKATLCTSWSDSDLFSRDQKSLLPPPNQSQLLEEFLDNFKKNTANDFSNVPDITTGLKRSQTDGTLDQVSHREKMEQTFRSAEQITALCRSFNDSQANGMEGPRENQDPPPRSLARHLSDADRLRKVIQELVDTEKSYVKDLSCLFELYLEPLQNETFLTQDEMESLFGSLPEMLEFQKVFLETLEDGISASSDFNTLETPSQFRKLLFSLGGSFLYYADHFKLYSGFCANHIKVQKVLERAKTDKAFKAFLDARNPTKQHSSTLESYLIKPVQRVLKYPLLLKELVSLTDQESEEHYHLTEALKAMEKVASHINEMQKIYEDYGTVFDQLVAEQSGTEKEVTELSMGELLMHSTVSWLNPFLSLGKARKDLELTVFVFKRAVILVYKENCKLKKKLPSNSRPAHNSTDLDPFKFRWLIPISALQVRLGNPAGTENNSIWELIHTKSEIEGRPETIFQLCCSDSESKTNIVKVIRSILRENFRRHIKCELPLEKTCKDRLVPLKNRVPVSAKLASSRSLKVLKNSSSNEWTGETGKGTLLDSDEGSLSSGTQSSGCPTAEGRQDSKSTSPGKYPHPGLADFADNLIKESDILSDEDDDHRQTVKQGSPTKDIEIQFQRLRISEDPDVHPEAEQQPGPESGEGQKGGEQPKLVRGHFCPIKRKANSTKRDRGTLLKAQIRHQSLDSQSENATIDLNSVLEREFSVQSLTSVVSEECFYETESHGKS

With “A2AC_HUMAN (Modified) (Biotin-DFRPSFKHILFRRARRGFRQ; not fully specified)”, the Classification in assay [1] is given as 4 (A450 nm 3-4).
With `CSCC[C@H](NC(=O)[C@H](C)NC(=O)[C@H](CCCNC(=N)N)NC(=O)CNC(=O)[C@@H](NC(=O)[C@H](Cc1c[nH]c2ccccc12)NC(=O)[C@H](CCCNC(=N)N)NC(=O)CNC(=O)CCCC[C@@H]1SC[C@@H]2NC(=O)N[C@@H]21)[C@@H](C)O)C(=O)N[C@@H](CO)C(=O)N[C@@H](C)C(=O)N[C@@H](Cc1c[nH]c2ccccc12)C(=O)N[C@@H](CCCCN)C(=O)N1CCC[C@H]1C(=O)N[C@H](C(=O)N[C@@H](CCCNC(=N)N)C(=O)N[C@@H](CCCNC(=N)N)C(=O)N[C@@H](CCC(=O)O)C(=O)N[C@H](C(=O)N[C@@H](CCC(=O)O)C(=O)N[C@H](C(=O)O)C(C)C)[C@@H](C)O)[C@@H](C)O` [HPV E6 #35 (modified)] (Biotin-GRWTGRAMSAWKPTRRETEV-OH; C-terminus assumed), the Classification in assay [2] is 1 (A450 nm 0-1).
In the case of “A2AA_HUMAN (modified) (Biotin-HDFRRAFKKILARGDRKRIV; not fully specified)”, the Classification in assay [3] is 1 (A450 nm 0-1); in assay [4] it was 1 (A450 nm 0-1); in assay [5] (PDZ SITAC-18, PDZ Domain 1), 4 (A450 nm 3-4); in assay [5] (PDZ SITAC-18, PDZ Domain 2), 4 (A450 nm 3-4); in assay [6], 1 (A450 nm 0-1).
As for “ELLQFCRTPNPALKNGQYWV (Biotin-ELLQFCRTPNPALKNGQYWV)”, in assay [7], the Classification is 3 (A450 nm 2-3).
